Measured values as given in US20220025010A1 (ANTAG THERAPEUTICS, published 2022).
*1 amine or outer side, *2 acyl side, *3 side chain or, on linkers, in order; H or OH if unused. Where no end group is shown, it is not given here. Side-chain parts run from the residue outwards. [ ]: non-standard residue; d: D form. The star is where a group is joined. C16 diacid = O=C(O)CCCCCCCCCCCCCCC(=O)*; γGlu = O=C(O)[C@H](CCC(=O)[*:2])N[*:1]; pGlu = O=C1CC[C@@H](C(=O)O)N1; AEEA = NCCOCCOCC(=O)O

T1: human GIP receptor (human, UniProt P48546 22-466)
T1 sequence (looked up): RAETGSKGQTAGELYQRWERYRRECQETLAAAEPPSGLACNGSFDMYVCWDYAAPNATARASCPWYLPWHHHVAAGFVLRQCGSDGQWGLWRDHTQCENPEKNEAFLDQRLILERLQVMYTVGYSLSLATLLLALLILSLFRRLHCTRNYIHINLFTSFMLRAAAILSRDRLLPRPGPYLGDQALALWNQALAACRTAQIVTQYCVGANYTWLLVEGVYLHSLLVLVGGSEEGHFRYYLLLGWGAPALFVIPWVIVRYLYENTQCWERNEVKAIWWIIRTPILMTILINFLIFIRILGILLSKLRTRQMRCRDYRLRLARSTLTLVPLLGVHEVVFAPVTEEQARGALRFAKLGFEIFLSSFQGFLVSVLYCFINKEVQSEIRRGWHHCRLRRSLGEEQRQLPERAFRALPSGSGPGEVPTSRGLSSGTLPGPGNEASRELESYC

B1: AT269 (peptide)
peptide: GGTFISDYSIAMDRIKQQDFVNWLLAQR
HELM: PEPTIDE1{G.G.T.F.I.S.D.Y.S.I.A.M.D.R.I.K.Q.Q.D.F.V.N.W.L.L.A.Q.R}|PEPTIDE2{[O=C(O)CCCCCCCCCCCCCCC(=O)[*:2]].[gGlu].[O=C(COCCOCCN[*:1])[*:2]]}$PEPTIDE1,PEPTIDE2,16:R3-3:R2$$$V2.0; N-terminus assumed
SMILES: CC[C@H](C)[C@H](NC(=O)[C@H](CO)NC(=O)[C@H](Cc1ccc(O)cc1)NC(=O)[C@H](CC(=O)O)NC(=O)[C@H](CO)NC(=O)[C@@H](NC(=O)[C@H](Cc1ccccc1)NC(=O)[C@@H](NC(=O)CNC(=O)CN)[C@@H](C)O)[C@@H](C)CC)C(=O)N[C@@H](C)C(=O)N[C@@H](CCSC)C(=O)N[C@@H](CC(=O)O)C(=O)N[C@@H](CCCNC(=N)N)C(=O)N[C@H](C(=O)N[C@@H](CCCCNC(=O)COCCOCCNC(=O)CC[C@H](NC(=O)CCCCCCCCCCCCCCC(=O)O)C(=O)O)C(=O)N[C@@H](CCC(N)=O)C(=O)N[C@@H](CCC(N)=O)C(=O)N[C@@H](CC(=O)O)C(=O)N[C@@H](Cc1ccccc1)C(=O)N[C@H](C(=O)N[C@@H](CC(N)=O)C(=O)N[C@@H](Cc1c[nH]c2ccccc12)C(=O)N[C@@H](CC(C)C)C(=O)N[C@@H](CC(C)C)C(=O)N[C@@H](C)C(=O)N[C@@H](CCC(N)=O)C(=O)N[C@@H](CCCNC(=N)N)C(=O)O)C(C)C)[C@@H](C)CC
B2: AT279 (peptide)
peptide: PGTFISDYSIAMDRIK([AEEA-AEEA-γGlu-C16 diacid])QQDFVNWLLAQR-OH
modifications: N-terminus assumed
SMILES: CC[C@H](C)[C@H](NC(=O)[C@H](CO)NC(=O)[C@H](Cc1ccc(O)cc1)NC(=O)[C@H](CC(=O)O)NC(=O)[C@H](CO)NC(=O)[C@@H](NC(=O)[C@H](Cc1ccccc1)NC(=O)[C@@H](NC(=O)CNC(=O)[C@@H]1CCCN1)[C@@H](C)O)[C@@H](C)CC)C(=O)N[C@@H](C)C(=O)N[C@@H](CCSC)C(=O)N[C@@H](CC(=O)O)C(=O)N[C@@H](CCCNC(=N)N)C(=O)N[C@H](C(=O)N[C@@H](CCCCNC(=O)COCCOCCNC(=O)COCCOCCNC(=O)CC[C@H](NC(=O)CCCCCCCCCCCCCCC(=O)O)C(=O)O)C(=O)N[C@@H](CCC(N)=O)C(=O)N[C@@H](CCC(N)=O)C(=O)N[C@@H](CC(=O)O)C(=O)N[C@@H](Cc1ccccc1)C(=O)N[C@H](C(=O)N[C@@H](CC(N)=O)C(=O)N[C@@H](Cc1c[nH]c2ccccc12)C(=O)N[C@@H](CC(C)C)C(=O)N[C@@H](CC(C)C)C(=O)N[C@@H](C)C(=O)N[C@@H](CCC(N)=O)C(=O)N[C@@H](CCCNC(=N)N)C(=O)O)C(C)C)[C@@H](C)CC
B3: AT261 (peptide)
peptide: PGTFISDYSIAMDRIK(C16 diacid)QQDFVNWLLAQR-OH
modifications: N-terminus assumed
SMILES: CC[C@H](C)[C@H](NC(=O)[C@H](CO)NC(=O)[C@H](Cc1ccc(O)cc1)NC(=O)[C@H](CC(=O)O)NC(=O)[C@H](CO)NC(=O)[C@@H](NC(=O)[C@H](Cc1ccccc1)NC(=O)[C@@H](NC(=O)CNC(=O)[C@@H]1CCCN1)[C@@H](C)O)[C@@H](C)CC)C(=O)N[C@@H](C)C(=O)N[C@@H](CCSC)C(=O)N[C@@H](CC(=O)O)C(=O)N[C@@H](CCCNC(=N)N)C(=O)N[C@H](C(=O)N[C@@H](CCCCNC(=O)CCCCCCCCCCCCCCC(=O)O)C(=O)N[C@@H](CCC(N)=O)C(=O)N[C@@H](CCC(N)=O)C(=O)N[C@@H](CC(=O)O)C(=O)N[C@@H](Cc1ccccc1)C(=O)N[C@H](C(=O)N[C@@H](CC(N)=O)C(=O)N[C@@H](Cc1c[nH]c2ccccc12)C(=O)N[C@@H](CC(C)C)C(=O)N[C@@H](CC(C)C)C(=O)N[C@@H](C)C(=O)N[C@@H](CCC(N)=O)C(=O)N[C@@H](CCCNC(=N)N)C(=O)O)C(C)C)[C@@H](C)CC
B4: AT275 (peptide)
peptide: GGTFISDYSIAMDRIK([AEEA-AEEA-γGlu-C16 diacid])QQDFVNWLLAQR-OH
modifications: N-terminus assumed
SMILES: CC[C@H](C)[C@H](NC(=O)[C@H](CO)NC(=O)[C@H](Cc1ccc(O)cc1)NC(=O)[C@H](CC(=O)O)NC(=O)[C@H](CO)NC(=O)[C@@H](NC(=O)[C@H](Cc1ccccc1)NC(=O)[C@@H](NC(=O)CNC(=O)CN)[C@@H](C)O)[C@@H](C)CC)C(=O)N[C@@H](C)C(=O)N[C@@H](CCSC)C(=O)N[C@@H](CC(=O)O)C(=O)N[C@@H](CCCNC(=N)N)C(=O)N[C@H](C(=O)N[C@@H](CCCCNC(=O)COCCOCCNC(=O)COCCOCCNC(=O)CC[C@H](NC(=O)CCCCCCCCCCCCCCC(=O)O)C(=O)O)C(=O)N[C@@H](CCC(N)=O)C(=O)N[C@@H](CCC(N)=O)C(=O)N[C@@H](CC(=O)O)C(=O)N[C@@H](Cc1ccccc1)C(=O)N[C@H](C(=O)N[C@@H](CC(N)=O)C(=O)N[C@@H](Cc1c[nH]c2ccccc12)C(=O)N[C@@H](CC(C)C)C(=O)N[C@@H](CC(C)C)C(=O)N[C@@H](C)C(=O)N[C@@H](CCC(N)=O)C(=O)N[C@@H](CCCNC(=N)N)C(=O)O)C(C)C)[C@@H](C)CC
B5: AT379 (peptide)
peptide: [pGlu]GTFISDYSIAMDRIK([AEEA-AEEA-γGlu-C16 diacid])QQDFVNWLLAQR-NH2
B6: AT273 (peptide)
peptide: PGTFISDYSIAMDRIKQQDFVNWLLAQR
HELM: PEPTIDE1{P.G.T.F.I.S.D.Y.S.I.A.M.D.R.I.K.Q.Q.D.F.V.N.W.L.L.A.Q.R}|PEPTIDE2{[O=C(O)CCCCCCCCCCCCCCC(=O)[*:2]].[gGlu].[O=C(COCCOCCN[*:1])[*:2]]}$PEPTIDE1,PEPTIDE2,16:R3-3:R2$$$V2.0; N-terminus assumed
SMILES: CC[C@H](C)[C@H](NC(=O)[C@H](CO)NC(=O)[C@H](Cc1ccc(O)cc1)NC(=O)[C@H](CC(=O)O)NC(=O)[C@H](CO)NC(=O)[C@@H](NC(=O)[C@H](Cc1ccccc1)NC(=O)[C@@H](NC(=O)CNC(=O)[C@@H]1CCCN1)[C@@H](C)O)[C@@H](C)CC)C(=O)N[C@@H](C)C(=O)N[C@@H](CCSC)C(=O)N[C@@H](CC(=O)O)C(=O)N[C@@H](CCCNC(=N)N)C(=O)N[C@H](C(=O)N[C@@H](CCCCNC(=O)COCCOCCNC(=O)CC[C@H](NC(=O)CCCCCCCCCCCCCCC(=O)O)C(=O)O)C(=O)N[C@@H](CCC(N)=O)C(=O)N[C@@H](CCC(N)=O)C(=O)N[C@@H](CC(=O)O)C(=O)N[C@@H](Cc1ccccc1)C(=O)N[C@H](C(=O)N[C@@H](CC(N)=O)C(=O)N[C@@H](Cc1c[nH]c2ccccc12)C(=O)N[C@@H](CC(C)C)C(=O)N[C@@H](CC(C)C)C(=O)N[C@@H](C)C(=O)N[C@@H](CCC(N)=O)C(=O)N[C@@H](CCCNC(=N)N)C(=O)O)C(C)C)[C@@H](C)CC
B7: AT271 (peptide)
peptide: SGTFISDYSIAMDRIKQQDFVNWLLAQR
HELM: PEPTIDE1{S.G.T.F.I.S.D.Y.S.I.A.M.D.R.I.K.Q.Q.D.F.V.N.W.L.L.A.Q.R}|PEPTIDE2{[O=C(O)CCCCCCCCCCCCCCC(=O)[*:2]].[gGlu].[O=C(COCCOCCN[*:1])[*:2]]}$PEPTIDE1,PEPTIDE2,16:R3-3:R2$$$V2.0; N-terminus assumed
SMILES: CC[C@H](C)[C@H](NC(=O)[C@H](CO)NC(=O)[C@H](Cc1ccc(O)cc1)NC(=O)[C@H](CC(=O)O)NC(=O)[C@H](CO)NC(=O)[C@@H](NC(=O)[C@H](Cc1ccccc1)NC(=O)[C@@H](NC(=O)CNC(=O)[C@@H](N)CO)[C@@H](C)O)[C@@H](C)CC)C(=O)N[C@@H](C)C(=O)N[C@@H](CCSC)C(=O)N[C@@H](CC(=O)O)C(=O)N[C@@H](CCCNC(=N)N)C(=O)N[C@H](C(=O)N[C@@H](CCCCNC(=O)COCCOCCNC(=O)CC[C@H](NC(=O)CCCCCCCCCCCCCCC(=O)O)C(=O)O)C(=O)N[C@@H](CCC(N)=O)C(=O)N[C@@H](CCC(N)=O)C(=O)N[C@@H](CC(=O)O)C(=O)N[C@@H](Cc1ccccc1)C(=O)N[C@H](C(=O)N[C@@H](CC(N)=O)C(=O)N[C@@H](Cc1c[nH]c2ccccc12)C(=O)N[C@@H](CC(C)C)C(=O)N[C@@H](CC(C)C)C(=O)N[C@@H](C)C(=O)N[C@@H](CCC(N)=O)C(=O)N[C@@H](CCCNC(=N)N)C(=O)O)C(C)C)[C@@H](C)CC

What follows are binders tested against T1, human GIP receptor (assay: cell-based or functional assay).

Going from B1 to B2, the “CisBio cAMP agonism % Efficacy” value rises from 0% to 14%.

Going from B3 to B4, the “CisBio cAMP agonism % Efficacy” value rises from 0% to 5%.

B5 and B6 are the same in “CisBio cAMP agonism % Efficacy” value: 0% for the first, 0% for the second.

In the case of B7, the “CisBio cAMP agonism % Efficacy” value is reported as 2%.

Going from B1 to B2, the “DiscoveRx cAMP agonism Emax” value rises from 12 to 17.

Going from B3 to B4, the “DiscoveRx cAMP agonism Emax” value falls from 24 to 5.

Going from B6 to B7, the “DiscoveRx cAMP agonism Emax” value falls from 35 to 9.

Compared with B1, B2 is 4.8-fold lower in “DiscoveRx cAMP antagonism IC50” value: 0.091 µM for the first, 0.019 µM for the second.

B3 and B4 are within 1.5-fold of each other in “DiscoveRx cAMP antagonism IC50” value: 0.046 µM for the first, 0.043 µM for the second.

First: B5
Second: B6
The “DiscoveRx cAMP antagonism IC50” value of the first is 79-fold lower: 0.008 µM for the first, 0.634 µM for the second.

For B7, the “DiscoveRx cAMP antagonism IC50” value was 0.071 µM.

Compared with B1, B2 is lower in “DiscoveRx cAMP antagonism log IC50” value: -7 log M for the first, -7.7 log M for the second.

Going from B3 to B4, the “DiscoveRx cAMP antagonism log IC50” value falls from -7.3 log M to -7.4 log M.

Going from B5 to B6, the “DiscoveRx cAMP antagonism log IC50” value rises from -8.1 log M to -6.2 log M.

With B7 the “DiscoveRx cAMP antagonism log IC50” value was -7.2 log M.

Compared with B2, B3 is lower in “CisBio cAMP antagonism % inhib” value: 81% for the first, 62% for the second.

First: B4
Second: B5
The “CisBio cAMP antagonism % inhib” value of the first is lower: 66% for the first, 95% for the second.

With B7 the “CisBio cAMP antagonism % inhib” value was 73%.

B2 and B3 are within 1.5-fold of each other in “CisBio cAMP antagonism IC50” value: 0.159 µM for the first, 0.2 µM for the second.

Compared with B4, B5 is 5.9-fold lower in “CisBio cAMP antagonism IC50” value: 0.126 µM for the first, 0.0215 µM for the second.

In the case of B7, the “CisBio cAMP antagonism IC50” value is reported as 0.0858 µM.

B2 and B3 are within 0.2 log units of each other in “CisBio cAMP antagonism pIC50” value: 6.8 for the first, 6.7 for the second.

Compared with B4, B5 is higher in “CisBio cAMP antagonism pIC50” value: 6.9 for the first, 7.7 for the second.

B7 was tested, and the “CisBio cAMP antagonism pIC50” value was 7.1.

With B5 the “DiscoveRx cAMP antagonism % inhib” value was 96%.
